Measured values: patent publication US20220354880A1, “COMBINATION TREATMENT FOR CANCER” (AstraZeneca AB, priority 2019, published 2022)

Legend:
MC-38 OVA = assay: Low dose cisplatin anti-tumor activity in MC-38 OVA mice; format: in vivo; conditions: cisplatin 5 mg/kg (approximately 60 mg/m^2 human dose)
Description: FIGS. 1A-1C relate to Example 1.
A low dose treatment of cisplatin, 5 mg/kg (equivalent to approximately 60 mg/m^2 human dose) was tested for anti-tumor activity in MC-38 OVA mice.

human T-cell = conditions: in vitro; cited from earlier work
xenograft model = conditions: via a T-cell dependent mechanism; cited from earlier work

Row | Molecule | anti-tumor activity (tumor growth inhibition) (MC-38 OVA) | PD-L1-mediated suppression of human T-cell activation (human T-cell) | tumor growth in a xenograft model (xenograft model)
1 | N.N.[Cl][Pt][Cl] [cisplatin] | produces most tumor growth inhibition | – | –
2 | MEDI4736: anti-PD-L1 antibody selective for a PD-L1 polypeptide; SEQ ID NOs: 3-10 (antibody, V domains shown, MEDI4736 VH; Sequence 72 from PCT/US2010/058007; MEDI4736 VL; Sequence 77 from PCT/US2010/058007) VH: EVQLVESGGGLVQPGGSLRLSCAASGFTFSRYWMSWVRQAPGKGLEWVANIKQDGSEKYYVDSVKGRFTISRDNAKNSLYLQMNSLRAEDTAVYYCAREGGWFGELAFDYWGQGTLVTVSS VL: EIVLTQSPGTLSLSPGERATLSCRASQRVSSSYLAWYQQKPGQAPRLLIYDASSRATGIPDRFSGSGSGTDFTLTISRLEPEDFAVYYCQQYGSLPWTFGQGTKVEIK | – | can relieve PD-L1-mediated suppression of human T-cell activation in vitro | inhibit tumor growth in a xenograft model
